This note sets out measurements from the supplement of paper PMC5998384.

The subject of data set [1] is HeLa Kyoto. The experiment in a line: solubility change mitosis vs G1/S (difference of NP-40 vs SDS log2 ratios) (log2 ratio difference); higher = more soluble in mitosis.
Data set [2] has as its system HeLa Kyoto. The experiment in a line: solubility in G1/S (NP-40 vs SDS abundance) (log2 ratio); higher = more soluble. As to conditions: cell cycle stage: G1/S.
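For solubility change mitosis vs G1/S (difference of NP-40 vs SDS log2 ratios) in this document: synchronized HeLa Kyoto cells (double thymidine block for G1/S, nocodazole release for mitosis), protein amounts in NP-40 versus SDS lysates quantified by mass spectrometry, three biological replicates.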
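For solubility in G1/S (NP-40 vs SDS abundance) in this document: HeLa Kyoto cells arrested at G1/S by double thymidine block, proteins quantified by TMT10plex mass spectrometry in mild NP-40 versus SDS extracts, three biological replicates.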

Regarding “MASKKLGADFHGTFSYLDDVPFKTGDKFKTPAKVGLPIGFSLPDCLQVVREVQYDFSLEKKTIEWAEEIKKIEEAEREAECKIAEAEAKVNSKSGPEGDSKMSFSKTHSTATMPPPINPILASLQHNSILTPTRVSSSATKQKVLSPPHIKADFNLADFECEEDPFDNLELKTIDEKEELRNILVGTTGPIMAQLLDNNLPRGGSGSVLQDEEVLASLERATLDFKPLHKPNGFITLPQLGNCEKMSLSSKVSLPPIPAVSNIKSLSFPKLDSDDSNQKTAKLASTFHSTSCLRNGTFQNSLKPSTQSSASELNGHHTLGLSALNLDSGTEMPALTSSQMPSLSVLSVCTEESSPPNTGPTVTPPNFSVSQVPNMPSCPQAYSELQMLSPSERQCVETVVNMGYSYECVLRAMKKKGENIEQILDYLFAHGQLCEKGFDPLLVEEALEMHQCSEEKMMEFLQLMSKFKEMGFELKDIKEVLLLHNNDQDNALEDLMARAGAS [UBAP1]”, the “solubility change mitosis (log2)” value in the data set on HeLa Kyoto [1] was determined as 0.147. Moreover, in the data set on HeLa Kyoto [2], the “solubility in G1/S (log2)” value stood at 0.435.
For “MEGSFSDGGALPEGLAEEAEPQGAAWSGDSGTVSQSHSSASGPWEDEGAEDGAPGRDLPLLRRAAAGYAACLLPGAGARPEVEALDASLEDLLTRVDEFVGMLDMLRGDSSHVVSEGVPRIHAKAAEMRRIYSRIDRLEAFVRMVGGRVARMEEQVTKAEAELGTFPRAFKKLLHTMNVPSLFSKSAPSRPQQAGYEAPVLFRTEDYFPCCSERPQL [BLOC1S4]”, in that order: 0.323 and 0.477.
For “MASEAPSPPRSPPPPTSPEPELAQLRRKVEKLERELRSCKRQVREIEKLLHHTERLYQNAESNNQELRTQVEELSKILQRGRNEDNKKSDVEVQTENHAPWSISDYFYQTYYNDVSLPNKVTELSDQQDQAIETSILNSKDHLQVENDAYPGTDRTENVKYRQVDHFASNSQEPASALATEDTSLEGSSLAESLRAAAEAAVSQTGFSYDENTGLYFDHSTGFYYDSENQLYYDPSTGIYYYCDVESGRYQFHSRVDLQPYPTSSTKQSKDKKLKKKRKDPDSSATNEEKDLNSEDQKAFSVEHTSCNEEENFANMKKKAKIGIHHKNSPPKVTVPTSGNTIESPLHENISNSTSFKDEKIMETDSEPEEGEITDSQTEDSYDEAITSEGNVTAEDSEDEDEDKIWPPCIRVIVIRSPVLQIGSLFIITAVNPATIGREKDMEHTLRIPEVGVSKFHAEIYFDHDLQSYVLVDQGSQNGTIVNGKQILQPKTKCDPYVLEHGDEVKIGETVLSFHIHPGSDTCDGCEPGQVRAHLRLDKKDESFVGPTLSKEEKELERRKELKKIRVKYGLQNTEYEDEKTLKNPKYKDRAGKRREQVGSEGTFQRDDAPASVHSEITDSNKGRKMLEKMGWKKGEGLGKDGGGMKTPIQLQLRRTHAGLGTGKPSSFEDVHLLQNKNKKNWDKARERFTENFPETKPQKDDPGTMPWVKGTLE [AGGF1]”, in that order: -0.0218 and -0.292.
Consider “MADPVAGIAGSAAKSVRPFRSSEAYVEAMKEDLAEWLNALYGLGLPGGGDGFLTGLATGTTLCQHANAVTEAARALAAARPARGVAFQAHSVVPGSFMARDNVATFIGWCRVELGVPEVLMFETEDLVLRKNEKSVVLCLLEVARRGARLGLLAPRLVQFEQEIERELRAAPPAPNAPAAGEDTTETAPAPGTPARGPRMTPSDLRNLDELVREILGRCTCPDQFPMIKVSEGKYRVGDSSLLIFVRVLRSHVMVRVGGGWDTLEHYLDKHDPCRCSSTAHRPPQPRVCTFSPQRVSPTTSPRPASPVPGSERRGSRPEMTPVSLRSTKEGPETPPRPRDQLPPHPRSRRYSGDSDSSASSAQSGPLGTRSDDTGTGPRRERPSRRLTTGTPASPRRPPALRSQSRDRLDRGRPRGAPGGRGAQLSVPSPARRARSQSREEQAVLLVRRDRDGQHSWVPRGRGSGGSGRSTPQTPRARSPAAPRLSRVSSPSPELGTTPASIFRTPLQLDPQQEQQLFRRLEEEFLANARALEAVASVTPTGPVPDPARAPDPPAPDSAYCSSSSSSSSLSVLGGKCGQPGDSGRTANGLPGPRSQALSSSSDEGSPCPGMGGPLDAPGSPLACTEPSRTWARGRMDTQPDRKPSRIPTPRGPRRPSGPAELGTWHALHSVTPRAEPDSWM [GAS2L1]”, for which the “solubility change mitosis (log2)” value with HeLa Kyoto [1] was 0.169. Moreover, in the data set on HeLa Kyoto [2], the “solubility in G1/S (log2)” value was 0.282.
As for “MDPRGILKAFPKRQKIHADASSKVLAKIPRREEGEEAEEWLSSLRAHVVRTGIGRARAELFEKQIVQHGGQLCPAQGPGVTHIVVDEGMDYERALRLLRLPQLPPGAQLVKSAWLSLCLQERRLVDVAGFSIFIPSRYLDHPQPSKAEQDASIPPGTHEALLQTALSPPPPPTRPVSPPQKAKEAPNTQAQPISDDEASDGEETQVSAADLEALISGHYPTSLEGDCEPSPAPAVLDKWVCAQPSSQKATNHNLHITEKLEVLAKAYSVQGDKWRALGYAKAINALKSFHKPVTSYQEACSIPGIGKRMAEKIIEILESGHLRKLDHISESVPVLELFSNIWGAGTKTAQMWYQQGFRSLEDIRSQASLTTQQAIGLKHYSDFLERMPREEATEIEQTVQKAAQAFNSGLLCVACGSYRRGKATCGDVDVLITHPDGRSHRGIFSRLLDSLRQEGFLTDDLVSQEENGQQQKYLGVCRLPGPGRRHRRLDIIVVPYSEFACALLYFTGSAHFNRSMRALAKTKGMSLSEHALSTAVVRNTHGCKVGPGRVLPTPTEKDVFRLLGLPYREPAERDW [POLL]”, in the data set on HeLa Kyoto [1], the “solubility change mitosis (log2)” value is -0.00139. In the data set with HeLa Kyoto [2], the “solubility in G1/S (log2)” value is 0.0728.
For “MMKKKKFKFKVDFELEELSSVPFVNGVLFCKMRLLDGGSFTAESSREVVQANCVRWRKKFSFMCKMSASAATGILDPCIYRVSVRKELKGGKAYAKLGFADLNLAEFAGSGNTTRRCLLEGYDTKNTRQDNSILKVLISMQLMSGDPCFKTPPSTSMSIPIAGESESLQEDRKGGETLKVHLGIADLSAKSASVPDELGACGHSRTSSYASQQSKVSGYSTCHSRSSSFSELCHRRNTSVGSTSTGVESILEPCDEIEQKIAEPNLDTADKEDTASEKLSRCPVKQDSVESQLKRVDDTRVDADDIVEKILQSQDFSLDSSAEEEGLRLFVGPGGSTTFGSHHLPNRVGSGAYEQVVIKR [FAM102B]”, in that order: 0.0662 and -0.233.
For “MATVQEKAAALNLSALHSPAHRPPGFSVAQKPFGATYVWSSIINTLQTQVEVKKRRHRLKRHNDCFVGSEAVDVIFSHLIQNKYFGDVDIPRAKVVRVCQALMDYKVFEAVPTKVFGKDKKPTFEDSSCSLYRFTTIPNQDSQLGKENKLYSPARYADALFKSSDIRSASLEDLWENLSLKPANSPHVNISATLSPQVINEVWQEETIGRLLQLVDLPLLDSLLKQQEAVPKIPQPKRQSTMVNSSNYLDRGILKAYSDSQEDEWLSAAIDCLEYLPDQMVVEISRSFPEQPDRTDLVKELLFDAIGRYYSSREPLLNHLSDVHNGIAELLVNGKTEIALEATQLLLKLLDFQNREEFRRLLYFMAVAANPSEFKLQKESDNRMVVKRIFSKAIVDNKNLSKGKTDLLVLFLMDHQKDVFKIPGTLHKIVSVKLMAIQNGRDPNRDAGYIYCQRIDQRDYSNNTEKTTKDELLNLLKTLDEDSKLSAKEKKKLLGQFYKCHPDIFIEHFGD [DEPDC7]”, in that order: -0.0977 and 0.222.
For “MSGGEVVCSGWLRKSPPEKKLKRYAWKRRWFVLRSGRLTGDPDVLEYYKNDHAKKPIRIIDLNLCQQVDAGLTFNKKEFENSYIFDINTIDRIFYLVADSEEEMNKWVRCICDICGFNPTEEDPVKPPGSSLQAPADLPLAINTAPPSTQADSSSATLPPPYQLINVPPHLETLGIQEDPQDYLLLINCQSKKPEPTRTHADSAKSTSSETDCNDNVPSHKNPASSQSKHGMNGFFQQQMIYDSPPSRAPSASVDSSLYNLPRSYSHDVLPKVSPSSTEADGELYVFNTPSGTSSVETQMRHVSISYDIPPTPGNTYQIPRTFPEGTLGQTSKLDTIPDIPPPRPPKPHPAHDRSPVETCSIPRTASDTDSSYCIPTAGMSPSRSNTISTVDLNKLRKDASSQDCYDIPRAFPSDRSSSLEGFHNHFKVKNVLTVGSVSSEELDENYVPMNPNSPPRQHSSSFTEPIQEANYVPMTPGTFDFSSFGMQVPPPAHMGFRSSPKTPPRRPVPVADCEPPPVDRNLKPDRKVKPAPLEIKPLPEWEELQAPVRSPITRSFARDSSRFPMSPRPDSVHSTTSSSDSHDSEENYVPMNPNLSSEDPNLFGSNSLDGGSSPMIKPKGDKQVEYLDLDLDSGKSTPPRKQKSSGSGSSVADERVDYVVVDQQKTLALKSTREAWTDGRQSTESETPAKSVK [GAB1]”, in that order: -0.296 and 0.368.
In the case of “MESETEPEPVTLLVKSPNQRHRDLELSGDRGWSVGHLKAHLSRVYPERPRPEDQRLIYSGKLLLDHQCLRDLLPKQEKRHVLHLVCNVKSPSKMPEINAKVAESTEEPAGSNRGQYPEDSSSDGLRQREVLRNLSSPGWENISRPEAAQQAFQGLGPGFSGYTPYGWLQLSWFQQIYARQYYMQYLAATAASGAFVPPPSAQEIPVVSAPAPAPIHNQFPAENQPANQNAAPQVVVNPGANQNLRMNAQGGPIVEEDDEINRDWLDWTYSAATFSVFLSILYFYSSLSRFLMVMGATVVMYLHHVGWFPFRPRPVQNFPNDGPPPDVVNQDPNNNLQEGTDPETEDPNHLPPDRDVLDGEQTSPSFMSTAWLVFKTFFASLLPEGPPAIAN [HERPUD1]”, the “solubility change mitosis (log2)” value in the data set on HeLa Kyoto [1] is -0.0685. For the same sequence, the “solubility in G1/S (log2)” value in the data set on HeLa Kyoto [2] was 0.0523.
Regarding “MPSRAEDYEVLYTIGTGSYGRCQKIRRKSDGKILVWKELDYGSMTEAEKQMLVSEVNLLRELKHPNIVRYYDRIIDRTNTTLYIVMEYCEGGDLASVITKGTKERQYLDEEFVLRVMTQLTLALKECHRRSDGGHTVLHRDLKPANVFLDGKQNVKLGDFGLARILNHDTSFAKTFVGTPYYMSPEQMNRMSYNEKSDIWSLGCLLYELCALMPPFTAFSQKELAGKIREGKFRRIPYRYSDELNEIITRMLNLKDYHRPSVEEILENPLIADLVADEQRRNLERRGRQLGEPEKSQDSSPVLSELKLKEIQLQERERALKAREERLEQKEQELCVRERLAEDKLARAENLLKNYSLLKERKFLSLASNPELLNLPSSVIKKKVHFSGESKENIMRSENSESQLTSKSKCKDLKKRLHAAQLRAQALSDIEKNYQLKSRQILGMR [NEK2]”, in the data set with HeLa Kyoto [1], the “solubility change mitosis (log2)” value came to 0.191. In the data set on HeLa Kyoto [2], the “solubility in G1/S (log2)” value was -0.123.
For “MMWRPSVLLLLLLLRHGAQGKPSPDAGPHGQGRVHQAAPLSDAPHDDAHGNFQYDHEAFLGREVAKEFDQLTPEESQARLGRIVDRMDRAGDGDGWVSLAELRAWIAHTQQRHIRDSVSAAWDTYDTDRDGRVGWEELRNATYGHYAPGEEFHDVEDAETYKKMLARDERRFRVADQDGDSMATREELTAFLHPEEFPHMRDIVIAETLEDLDRNKDGYVQVEEYIADLYSAEPGEEEPAWVQTERQQFRDFRDLNKDGHLDGSEVGHWVLPPAQDQPLVEANHLLHESDTDKDGRLSKAEILGNWNMFVGSQATNYGEDLTRHHDEL [RCN3]”, in that order: 0.262 and 0.0765.
For “MEAEESEKAATEQEPLEGTEQTLDAEEEQEESEEAACGSKKRVVPGIVYLGHIPPRFRPLHVRNLLSAYGEVGRVFFQAEDRFVRRKKKAAAAAGGKKRSYTKDYTEGWVEFRDKRIAKRVAASLHNTPMGARRRSPFRYDLWNLKYLHRFTWSHLSEHLAFERQVRRQRLRAEVAQAKRETDFYLQSVERGQRFLAADGDPARPDGSWTFAQRPTEQELRARKAARPGGRERARLATAQDKARSNKGLLARIFGAPPPSESMEGPSLVRDS [ABT1]”, in that order: 0.803 and -0.95.
